Source: US20210292412A1 (published 2021)
Changes are numbered by the printed parent chain.

T1: recombinant N-terminal extracellular domain protein of human CD47 molecule (hCD47) (UniProt Q08722 19-135)
T1 chain: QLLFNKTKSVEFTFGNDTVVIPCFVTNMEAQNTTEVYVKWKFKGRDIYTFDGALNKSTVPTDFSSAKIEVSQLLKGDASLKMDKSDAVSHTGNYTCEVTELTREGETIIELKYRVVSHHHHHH

B1: h15G6 VH-v5/VK-v1 (antibody, V domains shown)
VH: QVQLVQSGAEVKKPGASVKVSCKASGYTFTDYYIHWVRQAPGQGLEWMGWIYPGSGNTKYNEKFQGRVTMTRDTSISTAYMELSSLRSDDTAVYYCARRREDSFDYWGQGTLVTVSS
VL: DIVMTQSPDSLAVSLGERATINCKSSQSLLYSSNQKNYLAWYQRKPGQPPKLLIYWASNRESGVPDRFSGSGSGTDFTLTISSLQAEDVAVYYCQQFYRYPLTFGQGTKVEIK
B2: h15G6 VH-v7/VK-v2 (antibody, V domains shown)
VH: B1 VH with V11L, M70L, R72V, I76T, A79V
VL: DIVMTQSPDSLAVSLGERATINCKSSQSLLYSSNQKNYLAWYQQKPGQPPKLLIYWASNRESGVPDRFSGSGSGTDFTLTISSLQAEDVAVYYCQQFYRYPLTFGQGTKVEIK
B3: h15G6 VH-v7/VK-v1 (antibody, V domains shown)
VH: B1 VH with V11L, M70L, R72V, I76T, A79V
VL: B1 VL
B4: h15G6 VH-v1/VK-v1 (antibody, V domains shown)
VH: B1 VH with V2I, M70L, R72V, I76S, A79V, Y95F, L112T, V113L
VL: B1 VL

Biological target: T1, recombinant N-terminal extracellular …
Assay: BLI; avid

Kd [nM]	Binder
0.2	B1
0.71	B2
0.6	B3
0.41	B4

Biological target: T1, recombinant N-terminal extracellular …
Assay: BLI; affinity

Kd [nM]	Binder
23	B1
56	B2
41	B3
18	B4

Biological target: T2, human CD47 on CCRF-CEM cells (CD47 positive cells) (human, UniProt Q08722 19-323)
Assay: FACS binding

EC50 [nM]	Binder
0.0483	B1
0.0488	B2
0.0482	B3
0.0602	B4

Biological target: T1, recombinant N-terminal extracellular …
Assay: ELISA binding

EC50 [nM]	Binder
0.0314	B1
0.0229	B2
0.0283	B3
0.092	B4

Biological target: T2, human CD47 on CCRF-CEM cells (CD47 …)
Assay: FACS blocking of CD47-SIRPα

IC50 [nM]	Binder
0.0488	B1
0.0397	B2
0.134	B3
0.0686	B4

Biological target: T1, recombinant N-terminal extracellular …
Assay: ELISA blocking of CD47-SIRPα

IC50 [nM]	Binder
0.118	B1
0.0843	B2
0.053	B3
0.0942	B4
